Measurements reported in PMC6130075, “Engineering of 3-ketosteroid-∆^1-dehydrogenase based site-directed saturation mutagenesis for efficient biotransformation of steroidal substrates” (Microbial Cell Factories, 2018).
Numbering of substitutions follows the chain as printed. Names may count otherwise.

B1: KsdD3 (3-ketosteroid-∆^1-dehydrogenase) (Pimelobacter simplex; W299A) (protein)
chain: MDWAEEYDVLVAGSGAGGMAGTYTAAREGLSVCLVEAGDKFGGTTAYSGGGGAWFPANPVLLRAGTDDTIEDALEYYRAVVGDRTPADLQETYVRGGAGLVAYLEEDDHFSFESYPWPDYFGDAPKARRDGQRHIIPTPLPVPSAPELREVVRGPLDNDRLGTPQPDDLFIGGRALVARFLTALATYPHATLVRETALAELVVEDGVVVGAIVETDGVRRAIRARRGVLLAAGGFEANDELRQKYGVPGVARDTMGPPTNVGAAHQAAIAVGADTDLMGEAWWSPGLTHPDGRSAFALAFTGGIFVDGAGRRFVNESAPYDRLGRAVIDHLTEGGVTPRYWMVYDHKEGSIPPVRATNVSMVDEEQYVAAGLWHTADTLPELAALIGVPADALVATVARFNELVADGYDADFGRGGEAYDRFFSGGEPPLVSIDEGPFHAAAFGISDLGTKGGLRTDTSARVLTADGTPIGGLYAAGNTMAAPSGTTYPGGGNPIGTSMLFSHLAVRHMGTEDAR
notes: full-length, N-terminal His6 tag (pET28a NdeI/EcoRI), E. coli BL21(DE3), Ni-NTA purified
B2: KsdD3 (3-ketosteroid-∆^1-dehydrogenase) (Pimelobacter simplex; W299G) (protein)
chain: B1 chain with A299G
B3: KsdD3 (3-ketosteroid-∆^1-dehydrogenase) (Pimelobacter simplex) (protein)
chain: B1 chain with A299W
notes: as for B1

Experiments:
[1] = target: T1, KsdD3 (3-ketosteroid-∆^1-dehydrogenase) (Pimelobacter simplex, UniProt P77815, W299A); assay: PMS/DCPIP reduction at […] nm, Michaelis-Menten fit; type: biochemical; conditions: 50 mM Tris-HCl pH 7.5, 30 °C, 1.5 mM PMS, 40 µM DCPIP, 2% methanol
T1 construct: gene KR76_27115; full-length, N-terminal His6 tag (pET28a NdeI/EcoRI), E. coli BL21(DE3), Ni-NTA purified

[2] = target: T2, KsdD3 (3-ketosteroid-∆^1-dehydrogenase) (Pimelobacter simplex, UniProt P77815); assay: PMS/DCPIP reduction at […] nm, Michaelis-Menten fit; type: biochemical; conditions: 50 mM Tris-HCl pH 7.5, 30 °C, 1.5 mM PMS, 40 µM DCPIP, 2% methanol
T2 construct: gene KR76_27115; full-length, N-terminal His6 tag (pET28a NdeI/EcoRI), E. coli BL21(DE3), Ni-NTA purified

purified protein [3] = substrate: C[C@]12CCC(=O)C=C1CC[C@@H]1[C@@H]2C(=O)C[C@@]2(C)[C@H]1CC[C@]2(O)C(=O)CO; assay: purified protein; conditions: 50 mM Tris-HCl pH 7.5, 30 °C, 1.5 mM PMS, 40 µM DCPIP, 2% methanol
purified protein [4] = substrate: C[C@]12CCC(=O)C=C1CC[C@@H]1[C@@H]2CC[C@@]2(C)[C@H]1CC[C@]2(C)O; assay: purified protein; type: biochemical, Pimelobacter simplex; conditions: pH 7.5; 30.0 °C
purified protein [5] = substrate: CC(=O)[C@@]1(O)CC[C@H]2[C@@H]3CCC4=CC(=O)CC[C@]4(C)[C@H]3C(=O)C[C@@]21C; assay: purified protein; type: biochemical, Pimelobacter simplex; conditions: 50 mM Tris-HCl pH 7.5, 30 °C, 1.5 mM PMS, 40 µM DCPIP, 2% methanol
purified protein [6] = substrate: CC(=O)[C@@]12O[C@@H]1C[C@H]1[C@@H]3CCC4=CC(=O)CC[C@]4(C)[C@H]3[C@H](O)C[C@@]12C; assay: purified protein; type: biochemical, Pimelobacter simplex; conditions: 50 mM Tris-HCl pH 7.5, 30 °C, 1.5 mM PMS, 40 µM DCPIP, 2% methanol
purified protein [7] = substrate: CC(=O)OCC(=O)[C@@]1(O)CC[C@H]2[C@@H]3CCC4=CC(=O)CC[C@]4(C)[C@H]3C(=O)C[C@@]21C; assay: purified protein; type: biochemical, Pimelobacter simplex; conditions: 50 mM Tris-HCl pH 7.5, 30 °C, 1.5 mM PMS, 40 µM DCPIP, 2% methanol
purified protein [8] = substrate: CC(=O)[C@H]1CC[C@H]2[C@@H]3CCC4=CC(=O)CC[C@]4(C)[C@H]3CC[C@]12C; assay: purified protein; type: biochemical, Pimelobacter simplex; conditions: 50 mM Tris-HCl pH 7.5, 30 °C, 1.5 mM PMS, 40 µM DCPIP, 2% methanol
purified protein [9] = substrate: C[C@]12CCC(=O)C=C1CC[C@@H]1[C@@H]2CC[C@]2(C)C(=O)CC[C@@H]12; assay: purified protein; type: biochemical, Pimelobacter simplex; conditions: pH 7.5; 30.0 °C
purified protein [10] = substrate: C[C@]12CC[C@H]3[C@@H](CCC4=CC(=O)CC[C@@]43C)[C@@H]1CC[C@@H]2O; assay: purified protein; type: biochemical, Pimelobacter simplex; conditions: pH 7.5; 30.0 °C
purified protein [11] = substrate: C[C@]12CCC(=O)C=C1CC[C@@H]1[C@@H]2CC[C@]2(C)C(=O)CC[C@@H]12; assay: purified protein; conditions: 50 mM Tris-HCl pH 7.5, 30 °C, 1.5 mM PMS, 40 µM DCPIP, 2% methanol

T2 sequence (P77815 entry or part of it): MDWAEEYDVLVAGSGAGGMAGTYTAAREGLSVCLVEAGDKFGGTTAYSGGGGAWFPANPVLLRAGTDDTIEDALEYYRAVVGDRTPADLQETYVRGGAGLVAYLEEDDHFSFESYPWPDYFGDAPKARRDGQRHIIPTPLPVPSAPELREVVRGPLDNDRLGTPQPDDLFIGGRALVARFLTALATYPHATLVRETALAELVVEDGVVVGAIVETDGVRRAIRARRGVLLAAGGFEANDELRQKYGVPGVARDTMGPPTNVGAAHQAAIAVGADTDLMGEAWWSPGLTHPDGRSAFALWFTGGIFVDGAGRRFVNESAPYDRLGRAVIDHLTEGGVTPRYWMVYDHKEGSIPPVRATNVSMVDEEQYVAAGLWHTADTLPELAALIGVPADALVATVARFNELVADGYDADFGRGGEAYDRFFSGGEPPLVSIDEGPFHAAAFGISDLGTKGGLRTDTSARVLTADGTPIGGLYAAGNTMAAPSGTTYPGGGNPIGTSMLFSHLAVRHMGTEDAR

Molecule | Km (purified protein [3]) [µM] | kcat (purified protein [3]) [s⁻¹] | kcat/Km (purified protein [3]) [M⁻¹ s⁻¹] | Km (purified protein [4]) [µM] | kcat/Km (purified protein [4]) [M⁻¹ s⁻¹] | Km (purified protein [5]) [µM] | kcat (purified protein [5]) [s⁻¹] | kcat/Km (purified protein [5]) [M⁻¹ s⁻¹] | Km (purified protein [6]) [µM] | kcat (purified protein [6]) [s⁻¹] | kcat/Km (purified protein [6]) [M⁻¹ s⁻¹] | Km (purified protein [7]) [µM] | kcat (purified protein [7]) [s⁻¹] | kcat/Km (purified protein [7]) [M⁻¹ s⁻¹] | Km (purified protein [8]) [µM] | kcat (purified protein [8]) [s⁻¹] | kcat/Km (purified protein [8]) [M⁻¹ s⁻¹] | Km (purified protein [9]) [µM] | kcat/Km (purified protein [9]) [M⁻¹ s⁻¹] | Km (purified protein [10]) [µM] | other results
C[C@]12CCC(=O)C=C1CC[C@H]1[C@@H]3CCC(=O)[C@@]3(C)CC[C@@]12O [9α-OH-AD, 9α-hydroxy-4-androstene-3,17-dione] | – | – | – | – | – | – | – | – | – | – | – | – | – | – | – | – | – | – | – | – | Km [1]: 68.5 ± 7 µM; Km [2]: 145 ± 4.4 µM
B1 | 42.85 ± 3.3 | 78 | 1.82e+06 | 44.63 ± 2.8 | 1.66e+06 | 46.85 ± 0.9 | 62.1 ± 6.1 | 1.32e+06 | 149.15 ± 4.6 | 33.6 ± 2.1 | 230000 | 75.93 ± 3.8 | 47.3 ± 1.5 | 620000 | 40.37 ± 3.7 | 87.1 ± 4.2 | 2.16e+06 | 34.89 ± 2.5 | 3.28e+06 | 33.25 ± 4.2 | kcat/Km (purified protein [10]): 3.7e+06 M⁻¹ s⁻¹
B2 | – | – | – | – | – | – | – | – | – | – | – | – | – | – | – | – | – | – | – | – | Km (purified protein [11]): 37.01 ± 1.8 µM; kcat (purified protein [11]): 101.2 ± 0.9 s⁻¹; kcat/Km (purified protein [11]): 2.74e+06 M⁻¹ s⁻¹
B3 | 50.04 ± 2.7 | 59.7 | 1.19e+06 | 55.35 ± 3.1 | 1.03e+06 | 57.12 ± 2.8 | 55.2 ± 3.7 | 970000 | 228.26 ± 7.1 | 19.2 ± 4.5 | 80000 | 95.08 ± 4.7 | 45.3 ± 3.5 | 480000 | 62.31 ± 4.8 | 53.5 ± 4.1 | 860000 | 47.43 ± 1.9 | 1.29e+06 | 42.05 ± 4.3 | kcat/Km (purified protein [10]): 1.89e+06 M⁻¹ s⁻¹
